B1: 16F12, anti-PCSK9 huIgG4 (antibody, V domains shown)
VH: QVHLVESGGGVVQPGRSLRLSCAASGFTFNSFGMHWVRQAPGKGLEWVALIWSDGSDEYYADSVKGRFTISRDNSKNTLYLQMNSLRAEDTAVYYCARAIAALYYYYGMDVWGQGTTVTVSS
VL: QSVLTQPPSVSAAPGQKVTISCSGSSSNIGNNFVSWYQQLPGTAPKLLIYDYNKRPSGIPDRFSGSKSGTSATLGITGLQTGDEADYYCGTWDSSLSAYVFGTGTRVTVLQ
B2: 21B12, anti-PCSK9 huIgG4 (antibody, V domains shown)
VH: QVQLVQSGAEVKKPGASVKVSCKASGYTLTSYGISWVRQAPGQGLEWMGWVSFYNGNTNYAQKLQGRGTMTTDPSTSTAYMELRSLRSDDTAVYYCARGYGMDVWGQGTTVTVSS
VL: QSALTQPASVSGSPGQSITISCTGTSSDVGGYNSVSWYQQHPGKAPKLMIYEVSNRPSGVSNRFSGSKSGNTASLTISGLQAEDEADYYCNSYTSTSMVFGGGTKLTVLQ

Columns and labels:
[1] = target: human PCSK9 (proprotein convertase subtilisin/kexin type 9), wild type (human) (UniProt Q8NBP7); assay: BIAcore SPR, antibody amine-coupled to CM5, PCSK9 as analyte, pH 7.4
[2] = target: human PCSK9 (proprotein convertase subtilisin/kexin type 9), wild type (human) (UniProt Q8NBP7); assay: KinExA solution equilibrium, PCSK9-coated beads
[3] = target: human PCSK9 (proprotein convertase subtilisin/kexin type 9), wild type (human) (UniProt Q8NBP7); assay: BIAcore SPR, human PCSK9, pH 6.0
[4] = target: human PCSK9 (proprotein convertase subtilisin/kexin type 9), wild type (human) (UniProt Q8NBP7); assay: BIAcore SPR, human PCSK9, pH 7.4
[5] = target: human PCSK9 (proprotein convertase subtilisin/kexin type 9), wild type (human) (UniProt Q8NBP7); assay: BIAcore solution equilibrium assay, 21B12 immobilised on CM5, one-site fit in KinExA Pro

Binder	Kd [1]	Kd [2]	Kd [3]	koff [3]	kon [3]	Kd [4]	koff [4]	kon [4]	Kd [5]
B1	0.47 nM	0.015 nM	0.029 nM	7.01e-05 s⁻¹	2.39e+06 M⁻¹ s⁻¹	0.47 nM	4.98e-05 s⁻¹	106000 M⁻¹ s⁻¹	–
B2	0.19 nM	–	0.0073 nM	1.68e-05 s⁻¹	2.29e+06 M⁻¹ s⁻¹	0.19 nM	6.63e-06 s⁻¹	34900 M⁻¹ s⁻¹	0.015 nM
